Experiment [1] addresses T1, PBD-C06 (final humanized, de-immunized antibody with the complement mutation K322A) (human). Nature of the experiment: SPR.
The target of experiment [2] is T1, PBD-C06 (final humanized, de-immunized …). Nature of the experiment: SPR. The source holds these as a separate data set. A general note: SPR reads the build-up and loss of mass on a sensor chip optically.

For 2 molecules, koff and Kd results are on record in paper PMC7040040 (2020).

Non-standard residues stand in square brackets, D forms with d. No end group written: not given here. pGlu = O=C1CC[C@@H](C(=O)O)N1

T1 sequence (chain, as listed by the source K322A, chain 1 of 2): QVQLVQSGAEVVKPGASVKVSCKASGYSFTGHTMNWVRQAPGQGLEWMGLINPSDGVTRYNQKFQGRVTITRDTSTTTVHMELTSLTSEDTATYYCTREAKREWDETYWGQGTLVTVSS
T1 sequence (chain, as listed by the source K322A, chain 2 of 2): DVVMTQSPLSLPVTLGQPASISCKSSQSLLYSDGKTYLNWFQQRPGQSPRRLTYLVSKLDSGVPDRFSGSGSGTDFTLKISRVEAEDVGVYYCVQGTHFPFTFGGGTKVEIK

B1: pE3-Aβ(3–18) monomer (peptide)
chain: [pGlu]FRHDSGYEVHHQKLV
On to B1, for which, in experiment [1], the koff (commonly the first-order rate constant of dissociation) worked out at 0.00393 s⁻¹. In addition, in experiment [2], binding was put at a Kd of 7.86 nM.

B2: Aβ(4–18) monomer (peptide)
chain: FRHDSGYEVHHQKLV
For B2, in experiment [2], the Kd (commonly the free concentration of one partner at which half of the binding sites on the other are occupied at equilibrium, for simple one-to-one binding) is greater than 50000 nM.
